Reference: article PMC3492541 (Nature structural & molecular biology, 2012)
Positions count from the first letter of the chain named.

B1: GST 7D (GST tail phosphomimetic in both zone 1 and zone 2) (domain or fragment, human, UniProt O14777 1-80, looked up)
chain: MKRSDVSDGGAGRLDMQELRSQDVNKQGLYTPQTKEKPTFGKLDINKPTSERKVDLFGKRTDGHGSRNDQLGIFSSSEKI
B2: GST 4D (GST tail phosphomimetic in zone 1) (domain or fragment, human, UniProt O14777 1-80, looked up)
chain: B1 chain with D5S, D8S, D15S
B3: GST tail phosphomimetic in zone 2 (domain or fragment, human, UniProt O14777 1-80, looked up)
chain: B1 chain with D44S, D55S, D62S, D69S

These binders were tested against taxol-stabilized microtubules (UniProt Q6B856 1-439) (assay: co-sedimentation).

Row | reduction of microtubule binding relative to GST 1–80 | Binder
1 | 80% | B1
2 | 60% | B2
3 | 20% | B3
